Experimental data from US20200048360A1 (TRACON PHARMACEUTICALS, published 2020).
Where a chain is given by its changes, count along the chain named.

T1: human CD105 (R&D Systems, Catalog No. 1097-EN) (human, UniProt P17813 26-586)
T1 construct: Captured on the plate by mouse anti-human CD105 (Southern Biotechnologies 9811-01); also called endoglin
T1 sequence (looked up): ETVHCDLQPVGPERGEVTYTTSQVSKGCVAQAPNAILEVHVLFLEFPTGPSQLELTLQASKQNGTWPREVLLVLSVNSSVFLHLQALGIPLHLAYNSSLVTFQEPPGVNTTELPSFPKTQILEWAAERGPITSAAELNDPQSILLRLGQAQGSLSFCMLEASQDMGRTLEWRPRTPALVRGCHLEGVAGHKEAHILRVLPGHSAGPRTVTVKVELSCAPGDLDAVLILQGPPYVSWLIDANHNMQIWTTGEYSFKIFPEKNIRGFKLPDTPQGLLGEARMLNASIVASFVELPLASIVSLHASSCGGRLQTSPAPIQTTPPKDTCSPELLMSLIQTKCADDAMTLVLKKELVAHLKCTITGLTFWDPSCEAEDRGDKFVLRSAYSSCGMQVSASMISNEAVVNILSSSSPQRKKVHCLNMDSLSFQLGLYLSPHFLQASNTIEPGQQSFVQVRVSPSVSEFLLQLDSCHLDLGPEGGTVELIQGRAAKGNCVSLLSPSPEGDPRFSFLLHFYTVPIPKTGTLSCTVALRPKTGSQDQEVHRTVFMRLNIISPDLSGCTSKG

T2: recombinant endoglin (UniProt P17813 26-586, limits assumed)
T2 sequence (looked up): T1 sequence (looked up)

B1: VK2AAVH1A2 (antibody, V domains shown)
VH: EVQLVESGGGLVKPGGSLRLSCAASGFTFSDAWMDWVRQAPGKGLEWVGEARSKASNHATYYAESVKGRFTISRDDSKNTLYLQMNSLKTEDTAVYYCTRWRRFFDSWGQGTLVTVSS
VL: DIQLTQSPSSLSASVGDRATITCRASSSVSYMHWYQQKPGKAPKPWAYATSNLASGVPSRFSGSGSGTDYTLTISSLQPEDFATYYCQQWSSNPLTFGGGTKVEIK
notes: IgG1 heavy chain, kappa light chain
B2: VK1AAVH1R (antibody, V domains shown)
VH: B1 VH with A51I, K54R
VL: B1 VL with L4M
notes: as for B1
B3: VK2AAVH1R (antibody, V domains shown)
VH: B1 VH with A51I, K54R
VL: B1 VL
notes: as for B1
B4: VK2SSVH1R (antibody, V domains shown)
VH: B1 VH with A51I, K54R
VL: B1 VL with A19V, T22S, A47I, T50S
notes: as for B1
B5: VK2ASVH1Q (antibody, V domains shown)
VH: B1 VH with A51I, K54Q
VL: B1 VL with A47I, T50S
notes: as for B1
B6: VK2ASVH1A (antibody, V domains shown)
VH: B1 VH with G49A, A51I
VL: B1 VL with A47I, T50S
notes: as for B1
B7: VK2SAVH1R (antibody, V domains shown)
VH: B1 VH with A51I, K54R
VL: B1 VL with A19V, T22S
notes: as for B1
B8: VK2SSVH1A2 (antibody, V domains shown)
VH: B1 VH
VL: B1 VL with A19V, T22S, A47I, T50S
notes: as for B1
B9: VK2SSVH1Q (antibody, V domains shown)
VH: B1 VH with A51I, K54Q
VL: B1 VL with A19V, T22S, A47I, T50S
notes: as for B1
B10: VK1AAVH1Q (antibody, V domains shown)
VH: B1 VH with A51I, K54Q
VL: B1 VL with L4M
notes: as for B1
B11: VK2ASVH1R (antibody, V domains shown)
VH: B1 VH with A51I, K54R
VL: B1 VL with A47I, T50S
notes: as for B1
B12: VK1AAVH1A2 (antibody, V domains shown)
VH: B1 VH
VL: B1 VL with L4M
notes: IgG1 heavy chain, kappa light chain; also called humanized/deimmunized anti-endoglin antibody VK1AAVH1A2
B13: VK2SSVH1S (antibody, V domains shown)
VH: B1 VH with G49S, A51I
VL: B1 VL with A19V, T22S, A47I, T50S
notes: as for B1
B14: VK2SAVH1S (antibody, V domains shown)
VH: B1 VH with G49S, A51I
VL: B1 VL with A19V, T22S
notes: as for B1
B15: VK2AAVH1Q (antibody, V domains shown)
VH: B1 VH with A51I, K54Q
VL: B1 VL
notes: as for B1
B16: VK2SAVH1A (antibody, V domains shown)
VH: B1 VH with G49A, A51I
VL: B1 VL with A19V, T22S
notes: as for B1
B17: VK2ASVH1S (antibody, V domains shown)
VH: B1 VH with G49S, A51I
VL: B1 VL with A47I, T50S
notes: as for B1
B18: VK2SAVH1A2 (antibody, V domains shown)
VH: B1 VH
VL: B1 VL with A19V, T22S
notes: as for B1
B19: VK2SAVH1Q (antibody, V domains shown)
VH: B1 VH with A51I, K54Q
VL: B1 VL with A19V, T22S
notes: as for B1

The binders below were run against T1, human CD105 (R&D Systems, Catalog No. …) (assay: competition ELISA on captured human CD105; competitor biotinylated chimeric anti-CD105).
Description: Antibodies were tested in a competition ELISA for binding to CD105 against biotinylated chimeric anti-CD105. Briefly, chimeric anti-CD105 was biotinylated using a micro-biotinylation kit (Sigma, Catalog No. BTAG-1KT) following the manufacturer's instructions. […] Binding of the biotinylated chimeric antibody was detected via streptavidin-HRP (Sigma, Catalog No. 55512) and TMB substrate (Sigma, Catalog No. T0440). OD450 nm values were measured on a Dynex MRX TCII plate reader. The results of the competition analysis are illustrated in FIGS. 7 and 8. […] To allow for comparisons within and between experiments, IC50 values of humanized or humanized/deimmunized variants were normalized against the reference antibody that was included on each plate to give a value for the fold difference. IC50 values are relative to chimeric anti-CD105 and are representative of three experiments. Summary ELISA data are presented in Table 1 and include antibody expression levels […]) as assayed in saturated static cultures.

Relative IC50 (fold of chimeric anti-endoglin antibody)	Binder
0.99 fold relative to chimeric	B1
1.05 fold relative to chimeric	B2
0.61 fold relative to chimeric	B3
0.62 fold relative to chimeric	B4
1.04 fold relative to chimeric	B5
1.41 fold relative to chimeric	B6
0.77 fold relative to chimeric	B7
1.03 fold relative to chimeric	B8
1.21 fold relative to chimeric	B9
1.3 fold relative to chimeric	B10
1.02 fold relative to chimeric	B11
1.12 fold relative to chimeric	B12
1.21 fold relative to chimeric	B13
0.96 fold relative to chimeric	B14
0.76 fold relative to chimeric	B15
0.49 fold relative to chimeric	B16
1.31 fold relative to chimeric	B17
0.84 fold relative to chimeric	B18
0.87 fold relative to chimeric	B19

These binders were tested against T2, recombinant endoglin (assay: BIAcore SPR, antibody captured on protein A chip, recombinant endoglin as analyte, 25 C).
Description: Affinity of antibodies can be assessed using, for example, BIAcore analysis using standard protocols. Briefly, protein A is chemically coupled to a BIAcore CM5 chip, with the amount of protein A immobilized corresponding to ˜2000 R U. Subsequent steps are performed in a running buffer of 10 mM HEPES, 150 mM NaCl, 3 mM EDTA, 0.05% TWEEN, pH=7.4, at 25 degrees Celsius using a 10 Hz data collection rate. Anti-endoglin antibody (10 nM) is captured at a 10 μL/min flow rate by the immobilized protein A on the BIAcore chip: typically, capture times of 20, 40 and 80 seconds allow the capture of antibody densities corresponding to 130 RU, 330 RU and 570 RU, respectively. Start-up cycles are performed using running buffer at a flow rate of 40 μl/min, a contact time of 90 seconds and a dissociation time of 90 seconds. Sample cycles are performed using recombinant endoglin at concentrations ranging from 0 to 40 nM. Endoglin is passed over the BIAcore chip containing captured antibody at a flow rate of 40 μl/min with a contact time of 525 seconds and dissociation time of 2500 seconds. Eight sample cycles are typically performed at each antibody capture density Regeneration of the chip is accomplished using 10 mM glycine pH=1.7. Data analysis is performed using BIAcore T100 Evaluation Software v1.1 Signals generated using BIAcore chips with different captured antibody densities are compared and data generated in the absence of recombinant endoglin are used to adjust for the intraassay blank signal. For fitting of the data, the Rₘₐₓ is allowed to float to account for variation in capture levels of each antibody in each cycle. Data from each capture density is fitted simultaneously during analysis of each antibody. BIAcore data are presented in Table 2 for chimeric, humanized and humanized/deimmunized anti-endoglin antibodies, including kₐ (1/Ms), kd (1/s), KD (M) and […] (RU²).

Kd [nM]	koff [s⁻¹]	kon [M⁻¹ s⁻¹]	Binder
0.533	3.41e-05	64000	B2
0.85	3.03e-05	35600	B10
0.706	3.25e-05	46000	B12

These binders were tested against T1, human CD105 (R&D Systems, Catalog No. …) (assay: ELISA with OD450 falling against test antibody concentration (competition format of paragraph 712: biotinylated chimeric anti-CD105 on captured human CD105; the legend says only 'binding assay data')).

IC50 (read off the curve) [µg/mL]	Binder
~0.1	B3
~0.1	B15

Biological target: T1, human CD105 (R&D Systems, Catalog No. …)
Test: as above
Remark: another data set of the same source

IC50 (read off the curve) [µg/mL]	Binder
~0.1	B15

Biological target: T1, human CD105 (R&D Systems, Catalog No. …)
Test: as above
Remark: another data set of the same source

IC50 (read off the curve) [µg/mL]	Binder
~0.1	B3

Biological target: T1, human CD105 (R&D Systems, Catalog No. …)
Test: as above
Remark: another data set of the same source

IC50 (read off the curve) [µg/mL]	Binder
~0.2	B12

Biological target: T1, human CD105 (R&D Systems, Catalog No. …)
Test: as above
Remark: another data set of the same source

IC50 (read off the curve) [µg/mL]	Binder
~0.2	B10

Biological target: T1, human CD105 (R&D Systems, Catalog No. …)
Test: as above
Remark: another data set of the same source

IC50 (read off the curve) [µg/mL]	Binder
~0.2	B2

Biological target: T1, human CD105 (R&D Systems, Catalog No. …)
Test: as above
Remark: another data set of the same source

IC50 (read off the curve) [µg/mL]	Binder
~0.2	B1
